Test in all cases: library pulldown, LC-MS of supernatant; ratio vs GFP-Nb control (0=captured, 1=not captured)
The target of one assay is T1, BC2T A6N (human).
T1 construct: position 6 library (BC2TA6X), row N
T1 peptide: Ac-PDRKANVSHWQQ-NH2
The method, boiled down:
(§1)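 Unbound peptide left in supernatant after 1 h pulldown in PBS/0.01% CHAPS measured by reversed-phase LC-MS (8–30% eluent B gradient, 20 min).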

Another assay concerns the target T2, BC2T V7K (human).
T2 construct: position 7 library, row K
T2 peptide: Ac-PDRKAAKSHWQQ-NH2
The gist of the method: as §1

The target in another assay is T3, BC2T V7H (human).
T3 construct: position 7 library, row H
T3 peptide: Ac-PDRKAAHSHWQQ-NH2
The gist of the method: as §1

The target in the next assay is T4, BC2T V7E (human).
T4 construct: position 7 library, row E
T4 peptide: Ac-PDRKAAESHWQQ-NH2
The gist of the method:
as §1

The target in another assay is T5, BC2T P1Q (human).
T5 construct: position 1 library, row Q
T5 peptide: Ac-QDRKAAVSHWQQ-NH2
The method, boiled down:
as §1

Another assay has as its target T6, BC2T D2W (human).
T6 construct: position 2 library, row W
T6 peptide: Ac-PWRKAAVSHWQQ-NH2
The method, boiled down: as §1

For a further assay, the target named is T7, BC2T D2T (human).
T7 construct: position 2 library, row T
T7 peptide: Ac-PTRKAAVSHWQQ-NH2
The method, boiled down:
as §1

The target in the next assay is T8, BC2T D2Q (human).
T8 construct: position 2 library, row Q
T8 peptide: Ac-PQRKAAVSHWQQ-NH2
The gist of the method: as §1

The next assay concerns the target T9, BC2T R3W (human).
T9 construct: position 3 library (BC2TR3X), row W
T9 peptide: Ac-PDWKAAVSHWQQ-NH2
The method, boiled down: as §1

Another assay has as its target T10, BC2T R3S (human).
T10 construct: position 3 library (BC2TR3X), row S
T10 peptide: Ac-PDSKAAVSHWQQ-NH2
The method, boiled down:
as §1

A further assay deals with T11, BC2T R3Y (human).
T11 construct: position 3 library (BC2TR3X), row Y
T11 peptide: Ac-PDYKAAVSHWQQ-NH2
The method, boiled down:
as §1

The target of another assay is T12, BC2T R3C(Abu) (human, SMILES …).
T12 construct: position 3 library (BC2TR3X), row C(Abu) / C*
T12 peptide: Ac-PD[GABA]KAAVSHWQQ-NH2
The gist of the method:
as §1

A further assay addresses T13, BC2T R3D (human).
T13 construct: position 3 library (BC2TR3X), row D
T13 peptide: Ac-PDDKAAVSHWQQ-NH2
The method, boiled down: as §1

In a further assay the target is T14, BC2T K4S (human).
T14 construct: position 4 library, row S
T14 peptide: Ac-PDRSAAVSHWQQ-NH2
The method, boiled down: as §1

For a further assay, the target named is T15, BC2T K4N (human).
T15 construct: position 4 library, row N
T15 peptide: Ac-PDRNAAVSHWQQ-NH2
The method, boiled down: as §1

For another assay, the target named is T16, BC2T K4Q (human).
T16 construct: position 4 library, row Q
T16 peptide: Ac-PDRQAAVSHWQQ-NH2
The method, boiled down: as §1

Another assay addresses T17, BC2T K4R (human).
T17 construct: position 4 library, row R
T17 peptide: Ac-PDRRAAVSHWQQ-NH2
The method, boiled down:
as §1

For a further assay, the target named is T18, BC2T A5T (human).
T18 construct: position 5 library, row T
T18 peptide: Ac-PDRKTAVSHWQQ-NH2
The method, boiled down: as §1

In another assay the target is T19, BC2T A5C(Abu) (human, SMILES …).
T19 construct: position 5 library, row C(Abu) / C*
T19 peptide: Ac-PDRK[GABA]AVSHWQQ-NH2
The method, boiled down: as §1

For another assay, the target named is T20, BC2T A5K (human).
T20 construct: position 5 library, row K
T20 peptide: Ac-PDRKKAVSHWQQ-NH2
The gist of the method: as §1

Another assay deals with T21, BC2T A5H (human).
T21 construct: position 5 library, row H
T21 peptide: Ac-PDRKHAVSHWQQ-NH2
The method, boiled down: as §1

The target of another assay is T22, BC2T A5D (human).
T22 construct: position 5 library, row D
T22 peptide: Ac-PDRKDAVSHWQQ-NH2
The method, boiled down: as §1

Square brackets hold non-standard residues; d marks the D form. GABA = NCCCC(=O)O

B1: BC2 nanobody (BC2-Nb) (VHH)
VHH: QVQLVESGGGLVQPGGSLTLSCTASGFTLDHYDIGWFRQAPGKEREGVSCINNSDDDTYYADSVKGRFTIFMDNAKDTVYLQMNSLKPEDTAIYYCAEARGCKRGRYEYDFWGQGTQVTVSS
notes: immobilised on agarose/sepharose beads in this assay; also called BC2 nanotrap (immobilised form); not shown: C-terminal 6xHis-tag added by pHEN6 vector
For B1, the ratio came out at 1 in the assay with BC2T A6N; 0.3 in the assay with BC2T V7K; 0.3 with BC2T V7H; 0.4 with BC2T V7E; 0.6 with BC2T P1Q; 0.2 with BC2T D2W. For the same molecule, the ratio in the assay with BC2T D2T worked out at 0.1; with BC2T D2Q it was 0.1; in the assay with BC2T R3W, 0.8; with BC2T R3S it was 0.6; with BC2T R3Y, 0.7; with BC2T R3C(Abu) it was 0.5. Further, the ratio with BC2T R3D is 1; with BC2T K4S it was 0.3; with BC2T K4N it was 0.5; with BC2T K4Q, 0.1; in the assay with BC2T K4R it was 0.1; in the assay with BC2T A5T, 0.1. The ratio in the assay with BC2T A5C(Abu) was 0.1; with BC2T A5K it was 0.2; in the assay with BC2T A5H it was 0.2; in the assay with BC2T A5D, 0.5.

B2: BC2-NbR106S (VHH)
VHH: QVQLVESGGGLVQPGGSLTLSCTASGFTLDHYDIGWFRQAPGKEREGVSCINNSDDDTYYADSVKGRFTIFMDNAKDTVYLQMNSLKPEDTAIYYCAEARGCKRGSYEYDFWGQGTQVTVSS
notes: immobilised on beads in this assay; not shown: C-terminal 6xHis-tag added by pHEN6 vector
B2: the ratio in the assay with BC2T A6N turned out to be 1; with BC2T V7K, 0.3; with BC2T V7H, 0.4; with BC2T V7E, 0.8; with BC2T P1Q, 0.7; in the assay with BC2T D2W, 0.3. In addition, the ratio with BC2T D2T stood at 0.2; in the assay with BC2T D2Q, 0.2; with BC2T R3W, 1; with BC2T R3S it was 0.9; in the assay with BC2T R3Y, 1; with BC2T R3C(Abu), 0.9. In addition, the ratio is 1 in the assay with BC2T R3D; 0.7 with BC2T K4S; 0.9 with BC2T K4N; 0.4 in the assay with BC2T K4Q; 0.1 with BC2T K4R; 0.3 in the assay with BC2T A5T. Further, the ratio worked out at 0.3 in the assay with BC2T A5C(Abu), 0.2 with BC2T A5K, 0.3 in the assay with BC2T A5H and 0.9 with BC2T A5D.

These data come from US20170137467A1 (CHROMOTEK, published 2017).
